Reference: patent publication US12364768B2, “Nectin-4 antibody conjugates and uses thereof” (ARARIS BIOTECH AG, priority 2020, dated 2025)
Changes are numbered by the printed parent chain. Numbers in names are those of the source.

T1: mouse Nectin-4 (Mus musculus, UniProt Q8R007)
T1 sequence (Q8R007 31-508): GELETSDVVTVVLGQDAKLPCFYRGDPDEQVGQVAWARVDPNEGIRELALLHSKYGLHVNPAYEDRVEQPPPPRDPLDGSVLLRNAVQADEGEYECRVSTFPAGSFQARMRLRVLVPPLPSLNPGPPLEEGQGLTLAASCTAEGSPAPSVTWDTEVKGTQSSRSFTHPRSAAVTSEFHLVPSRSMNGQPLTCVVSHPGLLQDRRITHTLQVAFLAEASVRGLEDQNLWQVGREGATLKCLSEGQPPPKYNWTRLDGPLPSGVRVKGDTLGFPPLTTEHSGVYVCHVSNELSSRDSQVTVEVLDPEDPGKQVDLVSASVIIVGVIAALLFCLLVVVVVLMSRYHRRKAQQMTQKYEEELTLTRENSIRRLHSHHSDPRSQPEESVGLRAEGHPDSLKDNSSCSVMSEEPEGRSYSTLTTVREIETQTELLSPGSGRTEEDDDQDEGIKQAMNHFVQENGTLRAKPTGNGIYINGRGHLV

T2: TIGIT binding to Nectin-4 expressing T24 tumor cells (Homo sapiens, UniProt Q96NY8)
T2 construct: expressed in transfected cells; host or cells: T24 clone, lentiviral transduction
T2 sequence (Q96NY8 32-510): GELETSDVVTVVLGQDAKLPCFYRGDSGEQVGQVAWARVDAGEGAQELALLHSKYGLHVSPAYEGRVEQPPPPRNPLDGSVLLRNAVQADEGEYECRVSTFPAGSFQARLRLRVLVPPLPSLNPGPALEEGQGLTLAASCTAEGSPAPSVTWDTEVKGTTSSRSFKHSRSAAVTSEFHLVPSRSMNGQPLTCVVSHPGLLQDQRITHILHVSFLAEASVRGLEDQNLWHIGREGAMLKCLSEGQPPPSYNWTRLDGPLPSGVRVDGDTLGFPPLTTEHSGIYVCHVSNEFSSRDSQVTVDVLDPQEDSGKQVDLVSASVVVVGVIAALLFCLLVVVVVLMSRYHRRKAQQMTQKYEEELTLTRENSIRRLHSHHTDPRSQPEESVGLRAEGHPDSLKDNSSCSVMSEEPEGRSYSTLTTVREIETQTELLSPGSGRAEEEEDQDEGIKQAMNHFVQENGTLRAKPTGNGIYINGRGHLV

B1: hzD6.3C VL: "CDR1 mutation to remove a potential deamidation site ... hzD6.3C VL N33Q (position 30c under Kabat), SEQ ID NO:15" (antibody, V domains shown)
VL: DIVMTQTPLSLPVTPGEPASISCRSSQSIVHSQGNTYLEWYLQKPGQSPQLLIYKVSNRFSGVPDRFSGSGSGTDFTLKISRVEAEDVGVYYCFQGSHVPYTFGGGTKVEIK
modifications: Synthetic sequence hzD6.3C VL
B2: hzD6.2C-mIgG2a: "an anti-Nectin-4 antibody (hzD6.2C-mIgG2a)" (antibody, V domains shown)
VH: EVQLVESGGGLVQPGGSLRLSCAASGFTFSNYDMSWVRQAPGKGLEWVATISSGGSYTYYVDSVKGRFTISRDNAKNSLYLQMNSLRAEDTAVYYCARQELGSYYAMDYWGQGTTVTVSS
VL: B1 VL with Q33N, G34A
B3: hzD6.4C VL: "a FR1 and a CDR1 mutation (hzD6.4C VL I2V N33Q (positions 2 and 30c under Kabat), SEQ ID NO:16" (antibody, V domains shown)
VL: B1 VL with I2V
modifications: Synthetic sequence hzD6.4C VL

Columns and labels:
mouse Nectin-4 = target: T1, mouse Nectin-4; assay: Binding of purified humanized D6C mAbs to mouse Nectin-4; conditions: mAb of hzD6C VH with the named VL
Method: The humanized D6C VH region was combined with human IgG1 (SEQ ID NO:18) heavy chain constant region, and each humanized D6C VL region was combined individually with the human kappa light chain constant region (SEQ ID NO:20). The humanized D6C heavy chain (SEQ ID NO:24) was co-transfected with each humanized light chain (SEQ ID NOS:26-31) individually into CHO cells in a 30 mL culture, using the parental chimeric antibody, D6C, as a benchmark. A total of 7 mAbs were generated, purified, and analyzed for titer, purity, and binding.
Analytical size-exclusion chromatography was used to measure the percent purity (% protein of interest, POI), which is preferably 95% or greater. There was a reduction in percent purity seen with the chimeric D6C (84%) and the CDR grafted hzD6C VL (94%). The I2V, N33Q, and G34A mutations in hzD6.1C VL (98%), hzD6.2C VL (95%), and hzD6.3C VL (96%), respectively, as well as the […] N33Q double mutation hzD6.4C VL (99%), resolve the purity issue.

[1] = target: T2, TIGIT binding to Nectin-4 expressing T24 tumor cells; assay: Blocking of TIGIT-Fc binding to Nectin-4 expressing T24 tumor cells; assay type: cell-based; conditions: rhTIGIT-Fc 40 nM; antibody at various concentrations from 400 nM, 1:2 dilutions
Description: Anti-Nectin-4 antibody was examined to determine whether it could block binding of TIGIT to Nectin-4 expressing T24 tumor cells. Stable Nectin-4 expression in a T24 clone was achieved by Nectin4-lentiviral transduction. Recombinant human TIGIT-Fc chimera was purchased from R & D Systems. Briefly, cell binding was examined on Nectin-4 expressing T24 cells, which were dispensed into wells of V-bottom 96-well assay plates (1×10^5 cells/well), spun down, and the supernatant discarded. The cells were incubated with an anti-Nectin-4 antibody (hzD6.2C-mIgG2a) or an isotype control (mIgG2a) at eight different concentrations, starting with 400 nM and then 1:2 serial dilution, incubated at 4° C. for 30 min., and then rhTIGIT-Fc was added to each well at a final concentration of 40 nM. The treated cells were incubated at 4° C. for 30 min., washed three times, and then commercial PE anti-human Fc as a secondary antibody (1:200 dilution) was added and incubated at 4° C. for 20 min. The cells were washed twice and analyzed on BD Celesta™ flow cytometry. Percent of inhibition of TIGT (40 nM) binding due to anti-Nectin-4 antibody present was measured.

| Molecule | binding to mouse Nectin-4 (mouse Nectin-4) | blocking of TIGIT binding [1] |
| --- | --- | --- |
| B1 | no binding | – |
| B2 | – | more than 70% |
| B3 | no binding | – |
